Data as given in article PMC9333307.

Target: Urtica dioica agglutinin (Urtica dioica (stinging nettle))
Assay: ELISA; microwells coated with serial dilutions (1:2 to 1:16) of UDA in PBS at 4°C overnight; blocked with 0.3% skim milk; 0.5 μg.mL recombinant RBD added for 1 h at RT; detected with rabbit anti-his antibodies and HRP-conjugated secondary antibody, TMB, absorbance at 450 nm; wells without UDA as negative control
Set-up: unit not given here

Substance “recombinant receptor-binding domain (RBD) of SARS-CoV-2 Spike protein (from UniProt P0DTC2 319-541) (domain or fragment)” has an absorbance at 450 nm of 420.
